Data reported in the supplement of paper PMC9112550, “Optimization of the antimicrobial peptide Bac7 by deep mutational scanning” (BMC Biology, 2022).

Test system: Escherichia coli TOP10
Assay: shrunken log2 fold change of peptide-encoding DNA abundance (4.5 h post-induction vs induction); higher = less antimicrobial activity (less host growth inhibition)
Conditions: time post-induction: 4.5 h; library: site-saturation at positions 5, 18, 19, 20
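Note: peptides expressed intracellularly from a pBAD plasmid library in pooled LB shake-flask culture, induced with 0.3% L-arabinose, DNA abundance read by NGS, three biological replicates, DESeq2 with apeglm shrinkage.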

| Sequence | shrunken log2 fold change |
| --- | --- |
| RRIRIRPPRLPRPRPRPRDKPRP | 0.115 |
| RRIRHRPPRLPRPRPRPCLWPRP | -0.0157 |
| RRIRTRPPRLPRPRPRPPILPRP | 0.112 |
| RRIRFRPPRLPRPRPRPYYTPRP | -0.369 |
| RRIRFRPPRLPRPRPRPYFGPRP | -1.15 |
| RRIRYRPPRLPRPRPRPCRSPRP | 0.00487 |
| RRIRMRPPRLPRPRPRPVKFPRP | 0.0501 |
| RRIRGRPPRLPRPRPRPLHKPRP | 0.714 |
| RRIRDRPPRLPRPRPRPDDCPRP | -0.00963 |
| RRIRQRPPRLPRPRPRPVRWPRP | 0.428 |
| RRIRERPPRLPRPRPRPINQPRP | -0.734 |
| RRIRTRPPRLPRPRPRPTPQPRP | 0.241 |
| RRIRSRPPRLPRPRPRPKDWPRP | 0.21 |
| RRIRCRPPRLPRPRPRPFIPPRP | -0.976 |
| RRIRVRPPRLPRPRPRPADPPRP | 0.0239 |
| RRIRRRPPRLPRPRPRPILPPRP | 0.177 |
| RRIRVRPPRLPRPRPRPFFLPRP | -0.294 |
| RRIRPRPPRLPRPRPRPPMCPRP | 0.0827 |
| RRIRMRPPRLPRPRPRPMLQPRP | 0.196 |
| RRIRMRPPRLPRPRPRPFLVPRP | -0.0501 |
| RRIRMRPPRLPRPRPRPAADPRP | 2.81 |
| RRIRIRPPRLPRPRPRPVVQPRP | -1.04 |

| Sequence | shrunken log2 fold change |
| --- | --- |
| RRIRERPPRLPRPRPRPAIRPRP | -0.0312 |
| RRIRDRPPRLPRPRPRPMEQPRP | -0.164 |
| RRIRKRPPRLPRPRPRPHRKPRP | -0.0475 |
| RRIRCRPPRLPRPRPRPYYYPRP | -0.346 |
| RRIRPRPPRLPRPRPRPLKYPRP | -0.424 |
| RRIRERPPRLPRPRPRPGWFPRP | -0.249 |
| RRIRTRPPRLPRPRPRPENYPRP | -0.00973 |
| RRIRKRPPRLPRPRPRPYRRPRP | -0.105 |
| RRIRPRPPRLPRPRPRPLHLPRP | -0.311 |
| RRIRSRPPRLPRPRPRPRMNPRP | 0.079 |
| RRIRKRPPRLPRPRPRPIHTPRP | 0.101 |
| RRIRPRPPRLPRPRPRPVSVPRP | 0.0528 |
| RRIRTRPPRLPRPRPRPCHSPRP | -0.039 |
| RRIRCRPPRLPRPRPRPAESPRP | 0.0971 |
| RRIRERPPRLPRPRPRPMFAPRP | 0.0495 |
| RRIRMRPPRLPRPRPRPCSWPRP | 0.0611 |
| RRIRERPPRLPRPRPRPQCQPRP | 0.158 |
| RRIRGRPPRLPRPRPRPENQPRP | 0.534 |
| RRIRFRPPRLPRPRPRPQYPPRP | 0.041 |
| RRIRDRPPRLPRPRPRPYDTPRP | -0.0872 |
| RRIRTRPPRLPRPRPRPLVSPRP | -0.0657 |
| RRIRERPPRLPRPRPRPQNIPRP | -0.837 |

| Sequence | shrunken log2 fold change |
| --- | --- |
| RRIRCRPPRLPRPRPRPPIVPRP | -0.089 |
| RRIRRRPPRLPRPRPRPYGFPRP | -0.298 |
| RRIRMRPPRLPRPRPRPPEGPRP | 0.338 |
| RRIRSRPPRLPRPRPRPMPMPRP | 0.0988 |
| RRIRMRPPRLPRPRPRPQPEPRP | 0.582 |
| RRIRLRPPRLPRPRPRPEPLPRP | 0.0706 |
| RRIRQRPPRLPRPRPRPSLLPRP | -0.216 |
| RRIRARPPRLPRPRPRPAASPRP | 0.928 |
| RRIRNRPPRLPRPRPRPWVFPRP | -0.221 |
| RRIRGRPPRLPRPRPRPEKRPRP | 0.993 |
| RRIRARPPRLPRPRPRPNWQPRP | -0.0264 |
| RRIRRRPPRLPRPRPRPIWQPRP | 0.0175 |
| RRIRPRPPRLPRPRPRPNQRPRP | 0.0736 |
| RRIRFRPPRLPRPRPRPHFDPRP | -0.107 |
| RRIRSRPPRLPRPRPRPNFEPRP | -0.068 |
| RRIRTRPPRLPRPRPRPCVKPRP | 0.0506 |
| RRIRARPPRLPRPRPRPCDAPRP | 0.344 |
| RRIRARPPRLPRPRPRPILEPRP | -0.0126 |
| RRIRKRPPRLPRPRPRPSLTPRP | -0.0632 |
| RRIRVRPPRLPRPRPRPWHEPRP | -0.127 |
| RRIRLRPPRLPRPRPRPVSFPRP | 0.0353 |
| RRIRPRPPRLPRPRPRPCPCPRP | -0.481 |

| Sequence | shrunken log2 fold change |
| --- | --- |
| RRIRLRPPRLPRPRPRPCLCPRP | -0.0557 |
| RRIRVRPPRLPRPRPRPTMTPRP | 0.11 |
| RRIRFRPPRLPRPRPRPVRFPRP | 0.429 |
| RRIRYRPPRLPRPRPRPLCDPRP | -0.12 |
| RRIRHRPPRLPRPRPRPYPFPRP | -0.772 |
| RRIRYRPPRLPRPRPRPSSIPRP | -0.141 |
| RRIRKRPPRLPRPRPRPLFAPRP | 0.594 |
| RRIRHRPPRLPRPRPRPKYHPRP | -0.773 |
| RRIRTRPPRLPRPRPRPTKVPRP | -0.134 |
| RRIRYRPPRLPRPRPRPLEMPRP | -0.0768 |
| RRIRPRPPRLPRPRPRPANMPRP | -0.219 |
| RRIRDRPPRLPRPRPRPHVYPRP | -0.0179 |
| RRIRERPPRLPRPRPRPWQLPRP | -0.072 |
| RRIRNRPPRLPRPRPRPHEAPRP | -0.0663 |
| RRIRFRPPRLPRPRPRPFQPPRP | -0.334 |
| RRIRHRPPRLPRPRPRPLRHPRP | -0.132 |
| RRIRQRPPRLPRPRPRPGISPRP | 0.0461 |
| RRIRFRPPRLPRPRPRPGPMPRP | 0.104 |
| RRIRARPPRLPRPRPRPGLDPRP | 0.419 |
| RRIRTRPPRLPRPRPRPDGQPRP | 0.0697 |
| RRIRHRPPRLPRPRPRPMEDPRP | 0.0325 |
| RRIRYRPPRLPRPRPRPAGGPRP | 0.148 |

| Sequence | shrunken log2 fold change |
| --- | --- |
| RRIRWRPPRLPRPRPRPSCQPRP | 0.232 |
| RRIRMRPPRLPRPRPRPQPCPRP | 0.376 |
| RRIRKRPPRLPRPRPRPHCAPRP | -0.00229 |
| RRIRPRPPRLPRPRPRPLNDPRP | -0.298 |
| RRIRLRPPRLPRPRPRPIKTPRP | -0.0953 |
| RRIRTRPPRLPRPRPRPKCGPRP | -0.0177 |
| RRIRLRPPRLPRPRPRPRQGPRP | 0.252 |
| RRIRTRPPRLPRPRPRPWIQPRP | -0.194 |
| RRIRPRPPRLPRPRPRPSYDPRP | -0.526 |
| RRIRCRPPRLPRPRPRPRLSPRP | 0.0865 |
| RRIRHRPPRLPRPRPRPKSVPRP | -0.0127 |
| RRIRWRPPRLPRPRPRPEEWPRP | -0.0123 |
| RRIRQRPPRLPRPRPRPSGVPRP | -0.141 |
| RRIRYRPPRLPRPRPRPFMRPRP | -0.499 |
| RRIRARPPRLPRPRPRPRVWPRP | 0.827 |
| RRIRQRPPRLPRPRPRPFNNPRP | -0.476 |
| RRIRLRPPRLPRPRPRPGWSPRP | 0.0496 |
| RRIRERPPRLPRPRPRPMHSPRP | 0.0314 |
| RRIRHRPPRLPRPRPRPILHPRP | -0.0471 |
| RRIRQRPPRLPRPRPRPWHNPRP | -0.385 |
| RRIRRRPPRLPRPRPRPRTDPRP | 0.438 |
